# Target: NusA (E. coli (endogenous in MG1655)) (UniProt P0AFF6)
# Experiment: single-molecule tracking in live cells; HaloTag fusions labelled with JFX549 in growing E. coli at 37 °C; 5 ms camera exposure; HMM fit of diffusion trajectories, 5-state models coarse-grained with a threshold at 1 µm^2/s (slow diffusion state = bound)
substance,measurement,value
IF2-Domain-I-HaloTag (domain or fragment),dwell time in the slow-diffusion state,30 ms
same,occupancy in the slow state (after cell sorting by size),11%
same,steady-state fraction in the slow-diffusion state,14%

# From publication PMC12297416
